Measurements: patent US7271143B1, “Peptides for regulation of urokinase (uPA) and tissue type (tPA) plasminogen activator and method of optimizing therapeutic efficacy” (Thrombotech Ltd., priority 2001, dated 2007)
Where two headings read alike, the source gives them in different places.

How the values were obtained:
fibrin = biological target: T1, fibrin (Homo sapiens, UniProt P02671+P02675+P02679); details: greater than tPA; cited from earlier work
T1 sequence (P02671 20-644 isoform P02671-2 limits assumed): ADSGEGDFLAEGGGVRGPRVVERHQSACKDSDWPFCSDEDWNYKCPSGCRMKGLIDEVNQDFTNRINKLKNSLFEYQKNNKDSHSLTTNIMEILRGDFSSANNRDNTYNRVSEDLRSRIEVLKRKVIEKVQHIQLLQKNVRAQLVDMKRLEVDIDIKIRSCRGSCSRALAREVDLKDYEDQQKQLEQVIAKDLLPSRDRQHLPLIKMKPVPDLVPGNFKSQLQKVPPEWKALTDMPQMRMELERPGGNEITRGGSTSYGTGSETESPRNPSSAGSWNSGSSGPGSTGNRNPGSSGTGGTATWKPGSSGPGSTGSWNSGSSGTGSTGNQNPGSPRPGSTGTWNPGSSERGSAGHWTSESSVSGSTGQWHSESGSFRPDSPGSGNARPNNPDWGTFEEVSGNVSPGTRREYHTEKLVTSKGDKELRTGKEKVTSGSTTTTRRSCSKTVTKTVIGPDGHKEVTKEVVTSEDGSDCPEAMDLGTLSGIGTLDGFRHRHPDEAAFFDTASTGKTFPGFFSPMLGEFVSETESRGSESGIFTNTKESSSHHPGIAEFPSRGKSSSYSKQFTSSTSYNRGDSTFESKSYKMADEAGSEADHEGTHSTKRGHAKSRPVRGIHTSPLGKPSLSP
T1 sequence (P02675 45-491 limits assumed): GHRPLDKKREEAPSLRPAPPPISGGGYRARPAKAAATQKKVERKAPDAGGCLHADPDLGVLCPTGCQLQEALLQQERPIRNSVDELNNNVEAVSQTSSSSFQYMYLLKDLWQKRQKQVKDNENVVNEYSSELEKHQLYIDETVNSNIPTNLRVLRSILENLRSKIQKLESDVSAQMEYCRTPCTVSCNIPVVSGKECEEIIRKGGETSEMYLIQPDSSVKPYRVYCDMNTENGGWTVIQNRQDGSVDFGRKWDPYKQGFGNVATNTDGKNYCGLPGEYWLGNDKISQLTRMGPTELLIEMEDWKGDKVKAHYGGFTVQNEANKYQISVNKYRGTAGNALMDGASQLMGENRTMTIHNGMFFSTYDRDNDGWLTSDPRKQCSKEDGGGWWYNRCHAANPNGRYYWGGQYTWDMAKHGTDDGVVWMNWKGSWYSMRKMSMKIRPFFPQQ
T1 sequence (P02679 27-437 isoform P02679-2 limits assumed): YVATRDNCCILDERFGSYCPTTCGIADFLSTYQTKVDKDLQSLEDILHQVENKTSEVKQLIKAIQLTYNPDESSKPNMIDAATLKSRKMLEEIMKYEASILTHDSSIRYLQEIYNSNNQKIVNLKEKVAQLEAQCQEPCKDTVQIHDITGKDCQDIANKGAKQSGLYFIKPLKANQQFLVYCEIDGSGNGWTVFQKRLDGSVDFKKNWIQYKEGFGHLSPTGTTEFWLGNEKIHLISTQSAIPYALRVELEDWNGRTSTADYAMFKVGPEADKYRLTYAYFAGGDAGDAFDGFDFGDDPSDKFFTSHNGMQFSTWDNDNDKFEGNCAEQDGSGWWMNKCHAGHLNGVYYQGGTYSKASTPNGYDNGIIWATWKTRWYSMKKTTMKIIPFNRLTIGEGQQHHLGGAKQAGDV

[1] = rabbits, arterial venous shunt; cited from earlier work
[2] = biological target: plasminogen activator inhibitor-1 (PAI-1) (Homo sapiens, UniProt P05121); details: higher than tPA; cited from earlier work
plasminogen activator inhibitor-1 (PAI-1), sequence (P05121 24-402, species assumed): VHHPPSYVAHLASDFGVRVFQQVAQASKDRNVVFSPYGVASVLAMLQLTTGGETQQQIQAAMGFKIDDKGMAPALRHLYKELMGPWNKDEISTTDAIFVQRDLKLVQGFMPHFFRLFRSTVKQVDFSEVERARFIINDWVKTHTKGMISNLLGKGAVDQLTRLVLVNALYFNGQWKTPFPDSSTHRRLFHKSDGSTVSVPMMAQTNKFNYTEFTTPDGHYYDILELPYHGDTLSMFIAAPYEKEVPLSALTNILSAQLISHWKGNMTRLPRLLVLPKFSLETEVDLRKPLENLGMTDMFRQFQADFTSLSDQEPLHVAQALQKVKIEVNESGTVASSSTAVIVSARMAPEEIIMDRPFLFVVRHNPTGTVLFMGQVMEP

[3] = cited from earlier work
[4] = in vitro, cited from earlier work
isolated rat aorta rings = test: PE-induced contraction of isolated rat aorta rings; assay type: cell-based
Description: FIG. 1A is a diagram describing the results of experiments on the effect of tPA on PE-induced contraction of isolated rat aorta rings. Contraction of aortic rings was induced by increasing the concentrations of phenylephrine (PE), in the absence of tPA (full triangles) or in the presence of 1 nM (filled squares) or 20 nM tPA (empty squares).
FIG. 1B describes the results of experiments in which the contraction of aortic rings was induced in the absence of TNK-tPA (filled triangles), in the presence of 1 nM tPA (filled squares) or 20 nM tPA (empty squares).
FIG. 4 is a graph describing the effect of tPA on phenylepbrine-induced contraction of isolated rat aorta rings in vitro. The contraction of the aorta rings was induced by varying concentrations of phenylephrine in the absence of tPA (filled triangles), in the presence of 1 nM of TA (filled squares) or in the presence of 10 nM tPA (empty squares). The experiments were performed according to procedures described earlier by Haj-Yehia A et al., FASEB J, 2000, 14:1411–1422.
The effect of TNK-tPA on PE-induced contraction was compared with the effect of tPA, in the isolated aorta rings. […]

B1: TNK-tPA: bioengineered variant of tissue-type plasminogen activator with tetra-alanine substitution in the protease domain (protein)
chain: SYQVICRDEKTQMIYQQHQSWLRPVLRSNRVEYCWCNSGRAQCHSVPVKSCSEPRCFNGGTCQQALYFSDFVCQCPEGFAGKCCEIDTRATCYEDQGISYRGTWSTAESGAECTNWNSSALAQKPYSGRRPDAIRLGLGNHNYCRNPDRDSKPWCYVFKAGKYSSEFCSTPACSEGNSDCYFGNGSAYRGTHSLTESGASCLPWNSMILIGKVYTAQNPSAQALGLGKHNYCRNPDGDAKPWCHVLKNRRLTWEYCDVPSCSTCGLRQYSQPQFRIKGGLFADIASHPWQAAIFAAAAASPGERFLCGGILISSCWILSAAHCFQERFPPHHLTVILGRTYRVVPGEEEQKFEVEKYIVHKEFDDDTYDNDIALLQLKSDSSRCAQESSVVRTVCLPPADLQLPDWTECELSGYGKHEALSPFYSERLKEAHVRLYPSSRCTSQHLLNRTVTDNMLCAGDTRSGGPQANLHDACQGDSGGPLVCLNDGRMTLVGIISWGLGCGQKDVPGVYTKVTNYLDWIRDNMRP
relative fibrin specificity (fibrin): 14 fold | time required for 50% lysis relative to rtPA [1]: one third | resistance to PAI-1 relative to tPA [2]: 80 fold | efficacy compared with rtPA ([3]; comparative clinical trials): equivalent efficacy | non-cerebral bleeding episodes ([3]; in vivo): 4.66% | rate of intracranial hemorrhage compared with rtPA ([3]; in vivo): similar | potency relative to tPA ([4]; platelet-enriched clots): 13 fold | potency relative to tPA ([4]; whole blood clots): 8 fold | effect on PE-induced vasoconstriction (isolated rat aorta rings; 1 nM): stimulated | effect on PE-induced vasoconstriction (isolated rat aorta rings; 20 nM): increased its stimulatory effect
